In patent US20150203577A1 (Chugai, published 2015):

T1: mouse FcγRIII (mouse, UniProt P08508 31-215)
T1 construct: Extracellular domain with C-terminal His tag; also called mFcγRIII; mFcgRIII
T1 chain: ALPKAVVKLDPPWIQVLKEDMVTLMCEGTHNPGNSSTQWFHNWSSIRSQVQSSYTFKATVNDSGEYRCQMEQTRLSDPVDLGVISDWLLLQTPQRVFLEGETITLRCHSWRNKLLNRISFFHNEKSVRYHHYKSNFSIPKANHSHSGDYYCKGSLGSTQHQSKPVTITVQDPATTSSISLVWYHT

T2: mouse FcγRII (mouse, UniProt P08101 30-210)
T2 construct: Extracellular domain with C-terminal His tag; also called mFcγRII; mFcgRII
T2 sequence: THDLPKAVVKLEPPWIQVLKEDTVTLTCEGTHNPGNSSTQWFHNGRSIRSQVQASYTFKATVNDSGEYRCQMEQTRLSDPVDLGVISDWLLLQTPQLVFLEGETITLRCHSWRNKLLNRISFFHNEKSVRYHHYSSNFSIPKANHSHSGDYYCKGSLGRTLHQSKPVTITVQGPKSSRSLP


Assays:
mouse FcγRIII [1] = target: T1, mouse FcγRIII; assay: SPR (Biacore T200); KD of H237-mIgG1/MRAL-k0 / KD of variant
mouse FcγRII [2] = target: T2, mouse FcγRII; assay: as above
mouse FcγRIII [3] = target: T1, mouse FcγRIII; assay: SPR (Biacore T200); KD of H237-MB630/MRAL-k0 / KD of variant
mouse FcγRII [4] = target: T2, mouse FcγRII; assay: as above

| Binder | relative mFcγRIII-binding activity (mIgG1 = 1) (mouse FcγRIII [1]) [fold] | relative mFcγRII-binding activity (mIgG1 = 1) (mouse FcγRII [2]) [fold] | Relative mFcγRIII-binding activity (MB630 = 1) (mouse FcγRIII [3]) [fold] | Relative mFcγRII-binding activity (MB630 = 1) (mouse FcγRII [4]) [fold] |
| --- | --- | --- | --- | --- |
| MB815 (antibody, mouse IgG1, kappa, CH name; VH H237 + CH, L chain MRAL-k0; copies: 2 + 2) heavy: QVQLQESGPGLVKPSETLSLTCAVSGHSISHDHAWSWVRQPPGEGLEWIGFISYSGITNYNPSLQGRVTISRDNSKNTLYLQMNSLRAEDTAVYYCARSLARTTAMDYWGEGTLVTVSSAKTTPPSVYPLAPGSAAQTNSMVTLGCLVKGYFPEPVTVTWNSGSLSSGVHTFPAVLQSDLYTLSSSVTVPSSTWPSETVTCNVAHPASSTKVDKKIVPRDCGCKPCICEPNEVELVFIFPPKPKDVLTITLTPKVTCVVVDISKDDPEVQFSWFVDDVEVHTAQTQPREEQFNSTFRSVSELPIMHQDWLNGKEFKCRVDSAAFPAPIYKTISKTKGRPKAPQVYTIPPPKEQMAKDKVSLTCMITDFFPEDITVEWQWNGQPAENYKNTQPIMDTDGSYFVYSKLNVQKSNWEAGNTFTCSVLHEGLHNHHTEKSLSHSPGK light: not shown | 0.3 | 17.6 | 1.3 | 1.34 |
| MB817 (antibody, mouse IgG1, kappa, CH name; VH H237 + CH, L chain MRAL-k0; copies: 2 + 2) heavy: QVQLQESGPGLVKPSETLSLTCAVSGHSISHDHAWSWVRQPPGEGLEWIGFISYSGITNYNPSLQGRVTISRDNSKNTLYLQMNSLRAEDTAVYYCARSLARTTAMDYWGEGTLVTVSSAKTTPPSVYPLAPGSAAQTNSMVTLGCLVKGYFPEPVTVTWNSGSLSSGVHTFPAVLQSDLYTLSSSVTVPSSTWPSETVTCNVAHPASSTKVDKKIVPRDCGCKPCICEPNEVELVFIFPPKPKDVLTITLTPKVTCVVVDISKDDPEVQFSWFVDDVEVHTAQTQPREEQFNSTFRSVSELPIMHQDWLNGKEFKCRVMSAGFPAPIEKTISKTKGRPKAPQVYTIPPPKEQMAKDKVSLTCMITDFFPEDITVEWQWNGQPAENYKNTQPIMDTDGSYFVYSKLNVQKSNWEAGNTFTCSVLHEGLHNHHTEKSLSHSPGK light: not shown | 0.52 | 28.5 | 2.27 | 2.17 |
| MB816 (antibody, mouse IgG1, kappa, CH name; VH H237 + CH, L chain MRAL-k0; copies: 2 + 2) heavy: QVQLQESGPGLVKPSETLSLTCAVSGHSISHDHAWSWVRQPPGEGLEWIGFISYSGITNYNPSLQGRVTISRDNSKNTLYLQMNSLRAEDTAVYYCARSLARTTAMDYWGEGTLVTVSSAKTTPPSVYPLAPGSAAQTNSMVTLGCLVKGYFPEPVTVTWNSGSLSSGVHTFPAVLQSDLYTLSSSVTVPSSTWPSETVTCNVAHPASSTKVDKKIVPRDCGCKPCICEPNEVELVFIFPPKPKDVLTITLTPKVTCVVVDISKDDPEVQFSWFVDDVEVHTAQTQPREEQFNSTFRSVSELPIMHQDWLNGKEFKCRVMSDAFPAPIEKTISKTKGRPKAPQVYTIPPPKEQMAKDKVSLTCMITDFFPEDITVEWQWNGQPAENYKNTQPIMDTDGSYFVYSKLNVQKSNWEAGNTFTCSVLHEGLHNHHTEKSLSHSPGK light: not shown | 0.65 | 30.4 | 2.84 | 2.31 |
| MB820 (antibody, mouse IgG1, kappa, CH name; VH H237 + CH, L chain MRAL-k0; copies: 2 + 2) heavy: QVQLQESGPGLVKPSETLSLTCAVSGHSISHDHAWSWVRQPPGEGLEWIGFISYSGITNYNPSLQGRVTISRDNSKNTLYLQMNSLRAEDTAVYYCARSLARTTAMDYWGEGTLVTVSSAKTTPPSVYPLAPGSAAQTNSMVTLGCLVKGYFPEPVTVTWNSGSLSSGVHTFPAVLQSDLYTLSSSVTVPSSTWPSETVTCNVAHPASSTKVDKKIVPRDCGCKPCICEPNEVELVFIFPPKPKDVLTITLTPKVTCVVVDISKDDPEVQFSWFVDDVEVHTAQTQPREEQFNSTFRSVSELPIMHQDWLNGKEFKCRVMSAAFPAPIYKTISKTKGRPKAPQVYTIPPPKEQMAKDKVSLTCMITDFFPEDITVEWQWNGQPAENYKNTQPIMDTDGSYFVYSKLNVQKSNWEAGNTFTCSVLHEGLHNHHTEKSLSHSPGK light: not shown | 0.33 | 19.5 | 1.43 | 1.49 |
| MB819 (antibody, mouse IgG1, kappa, CH name; VH H237 + CH, L chain MRAL-k0; copies: 2 + 2) heavy: QVQLQESGPGLVKPSETLSLTCAVSGHSISHDHAWSWVRQPPGEGLEWIGFISYSGITNYNPSLQGRVTISRDNSKNTLYLQMNSLRAEDTAVYYCARSLARTTAMDYWGEGTLVTVSSAKTTPPSVYPLAPGSAAQTNSMVTLGCLVKGYFPEPVTVTWNSGSLSSGVHTFPAVLQSDLYTLSSSVTVPSSTWPSETVTCNVAHPASSTKVDKKIVPRDCGCKPCICEPNEVELVFIFPPKPKDVLTITLTPKVTCVVVDISKDDPEVQFSWFVDDVEVHTAQTQPREEQFNSTFRSVSELPIMHQDWLNGKEFKCRVMSAAFPAYIEKTISKTKGRPKAPQVYTIPPPKEQMAKDKVSLTCMITDFFPEDITVEWQWNGQPAENYKNTQPIMDTDGSYFVYSKLNVQKSNWEAGNTFTCSVLHEGLHNHHTEKSLSHSPGK light: not shown | 0.32 | 18.1 | 1.4 | 1.38 |

Next, values leading:

| relative mFcγRIII-binding activity (mIgG1 = 1) (mouse FcγRIII [1]) [fold] | relative mFcγRII-binding activity (mIgG1 = 1) (mouse FcγRII [2]) [fold] | Relative mFcγRIII-binding activity (MB630 = 1) (mouse FcγRIII [3]) [fold] | Relative mFcγRII-binding activity (MB630 = 1) (mouse FcγRII [4]) [fold] | Binder |
| --- | --- | --- | --- | --- |
| 0.3 | 16.3 | 1.29 | 1.24 | MB813 (antibody, mouse IgG1, kappa, CH name; VH H237 + CH, L chain MRAL-k0; copies: 2 + 2) heavy: QVQLQESGPGLVKPSETLSLTCAVSGHSISHDHAWSWVRQPPGEGLEWIGFISYSGITNYNPSLQGRVTISRDNSKNTLYLQMNSLRAEDTAVYYCARSLARTTAMDYWGEGTLVTVSSAKTTPPSVYPLAPGSAAQTNSMVTLGCLVKGYFPEPVTVTWNSGSLSSGVHTFPAVLQSDLYTLSSSVTVPSSTWPSETVTCNVAHPASSTKVDKKIVPRDCGCKPCICEPNEVELVFIFPPKPKDVLTITLTPKVTCVVVDISKDDPEVQFSWFVDDVEVHTAQTQPREEQFNSTFRSVSELPIMHQDWLNGKEFKCRVDSAAFPAFIEKTISKTKGRPKAPQVYTIPPPKEQMAKDKVSLTCMITDFFPEDITVEWQWNGQPAENYKNTQPIMDTDGSYFVYSKLNVQKSNWEAGNTFTCSVLHEGLHNHHTEKSLSHSPGK light: not shown |
| 0.34 | 18 | 1.48 | 1.37 | MB814 (antibody, mouse IgG1, kappa, CH name; VH H237 + CH, L chain MRAL-k0; copies: 2 + 2) heavy: QVQLQESGPGLVKPSETLSLTCAVSGHSISHDHAWSWVRQPPGEGLEWIGFISYSGITNYNPSLQGRVTISRDNSKNTLYLQMNSLRAEDTAVYYCARSLARTTAMDYWGEGTLVTVSSAKTTPPSVYPLAPGSAAQTNSMVTLGCLVKGYFPEPVTVTWNSGSLSSGVHTFPAVLQSDLYTLSSSVTVPSSTWPSETVTCNVAHPASSTKVDKKIVPRDCGCKPCICEPNEVELVFIFPPKPKDVLTITLTPKVTCVVVDISKDDPEVQFSWFVDDVEVHTAQTQPREEQFNSTFRSVSELPIMHQDWLNGKEFKCRVDSAAFPAYIEKTISKTKGRPKAPQVYTIPPPKEQMAKDKVSLTCMITDFFPEDITVEWQWNGQPAENYKNTQPIMDTDGSYFVYSKLNVQKSNWEAGNTFTCSVLHEGLHNHHTEKSLSHSPGK light: not shown |
| 0.45 | 24.4 | 1.96 | 1.86 | MB821 (antibody, mouse IgG1, kappa, CH name; VH H237 + CH, L chain MRAL-k0; copies: 2 + 2) heavy: QVQLQESGPGLVKPSETLSLTCAVSGHSISHDHAWSWVRQPPGEGLEWIGFISYSGITNYNPSLQGRVTISRDNSKNTLYLQMNSLRAEDTAVYYCARSLARTTAMDYWGEGTLVTVSSAKTTPPSVYPLAPGSAAQTNSMVTLGCLVKGYFPEPVTVTWNSGSLSSGVHTFPAVLQSDLYTLSSSVTVPSSTWPSETVTCNVAHPASSTKVDKKIVPRDCGCKPCICEPNEVELVFIFPPKPKDVLTITLTPKVTCVVVDISKDDPEVQFSWFVDDVEVHTAQTQPREEQFNSTFRSVSELPIMHQDWLNGKEFKCRVMSAAFPAPIERTISKTKGRPKAPQVYTIPPPKEQMAKDKVSLTCMITDFFPEDITVEWQWNGQPAENYKNTQPIMDTDGSYFVYSKLNVQKSNWEAGNTFTCSVLHEGLHNHHTEKSLSHSPGK light: not shown |
| 0.29 | 15.6 | 1.25 | 1.19 | MB818 (antibody, mouse IgG1, kappa, CH name; VH H237 + CH, L chain MRAL-k0; copies: 2 + 2) heavy: QVQLQESGPGLVKPSETLSLTCAVSGHSISHDHAWSWVRQPPGEGLEWIGFISYSGITNYNPSLQGRVTISRDNSKNTLYLQMNSLRAEDTAVYYCARSLARTTAMDYWGEGTLVTVSSAKTTPPSVYPLAPGSAAQTNSMVTLGCLVKGYFPEPVTVTWNSGSLSSGVHTFPAVLQSDLYTLSSSVTVPSSTWPSETVTCNVAHPASSTKVDKKIVPRDCGCKPCICEPNEVELVFIFPPKPKDVLTITLTPKVTCVVVDISKDDPEVQFSWFVDDVEVHTAQTQPREEQFNSTFRSVSELPIMHQDWLNGKEFKCRVMSAAFPAFIEKTISKTKGRPKAPQVYTIPPPKEQMAKDKVSLTCMITDFFPEDITVEWQWNGQPAENYKNTQPIMDTDGSYFVYSKLNVQKSNWEAGNTFTCSVLHEGLHNHHTEKSLSHSPGK light: not shown |
